Source: US20070178531A1 (BIOCHECK, published 2007)

T1: Mouse Id1: Histidine (mouse, UniProt P20067-2 1-148, limits assumed)
T1 construct: Fusion protein made in E. coli from vector pGW07; also called m-Id1-His; not shown: His tag
T1 sequence (looked up): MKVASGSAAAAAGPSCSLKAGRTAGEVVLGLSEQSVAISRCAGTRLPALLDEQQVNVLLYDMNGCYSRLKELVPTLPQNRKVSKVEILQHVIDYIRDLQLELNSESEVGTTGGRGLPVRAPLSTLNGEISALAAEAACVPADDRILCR

T2: Human Id2: Histidine (human, UniProt Q02363 1-134, limits assumed)
T2 construct: Fusion protein made in E. coli from vector pGW07; also called h-Id2: His; not shown: His tag
T2 sequence (looked up): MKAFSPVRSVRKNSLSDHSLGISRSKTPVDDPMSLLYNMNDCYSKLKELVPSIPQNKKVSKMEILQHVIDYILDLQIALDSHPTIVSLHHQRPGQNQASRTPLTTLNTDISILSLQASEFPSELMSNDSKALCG

T3: Human Id1: Histidine (human, UniProt P41134 1-155, limits assumed)
T3 construct: Fusion protein made in E. coli from vector pGW07; also called h-Id1: his; not shown: His tag
T3 sequence (looked up): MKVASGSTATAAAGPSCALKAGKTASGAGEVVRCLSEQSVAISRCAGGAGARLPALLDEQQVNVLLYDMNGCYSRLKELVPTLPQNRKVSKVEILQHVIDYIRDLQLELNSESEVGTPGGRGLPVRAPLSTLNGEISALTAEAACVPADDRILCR

T4: Mouse Id2: Histidine (mouse, UniProt P41136 1-134, limits assumed)
T4 construct: Fusion protein made in E. coli from vector pGW07; also called m-Id2: His; not shown: His tag
T4 sequence (looked up): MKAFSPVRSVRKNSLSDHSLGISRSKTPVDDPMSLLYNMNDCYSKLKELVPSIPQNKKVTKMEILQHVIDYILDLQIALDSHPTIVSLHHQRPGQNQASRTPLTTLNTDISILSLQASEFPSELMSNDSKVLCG

T5: Mouse Id3: Histidine (mouse, UniProt P41133 1-119)
T5 construct: Fusion protein made in E. coli from vector pGW07; also called m-Id3: His; Mouse Id3 (coated wells); not shown: His tag
T5 sequence: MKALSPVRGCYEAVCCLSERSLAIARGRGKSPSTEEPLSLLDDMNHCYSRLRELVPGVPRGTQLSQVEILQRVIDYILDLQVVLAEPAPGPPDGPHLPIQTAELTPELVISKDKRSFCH

T6: Human Id3: Histidine (human, UniProt Q02535 1-119 at identity 1.00))
T6 construct: Fusion protein made in E. coli from vector pGW07; also called h-Id3: His; Human Id3 (coated wells); not shown: His tag
T6 chain: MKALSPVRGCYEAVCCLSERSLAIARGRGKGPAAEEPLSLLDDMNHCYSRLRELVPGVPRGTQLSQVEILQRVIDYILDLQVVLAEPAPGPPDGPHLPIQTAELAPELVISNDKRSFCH


Assays:
Mouse Id1: Histidine [1] = biological target: T1, Mouse Id1: Histidine; experiment: ELISA, Ab 0.250 µg/ml
Procedure: (§1) The rabbit monoclonal anti-human Id3 (clone #3-3) and the rabbit monoclonal anti-mouse/human Id3 (clones #6-1, 16-1, 17-3, and 42-1) produced in Example 6 were tested reactivity against the following antigens: mouse Id1:His, human Id1:His, mouse Id2:His, human Id2:His, mouse Id3:His, human Id3:His, mouse Id4:His, human Id4:His and GST.
(§2) 1. Microtiter wells (prepared in accordance with Example 6) were coated (0.1 μg/well) with mouse Id1:His, human Id1:His, human Id2:His, human Id3:His, and 1.0 μg/well with GST. [0155] 2. Antibody Diluent: 0.25% (w/v) BSA in 0.015M KPO₄ Buffer, 0.85% (w/v) NaCl, 0.1% (w/v) NaN₃, pH=7.40 [0156] 3. Rabbit monoclonal anti-human Id3 (clone #3-3) prepared in Example 7 was diluted to […] with the antibody diluent. […] 4. Rabbit monoclonal anti-mouse/human Id3 (clones #6-1, 16-1, 17-3, 42-1) prepared in Example 7 was diluted to 0.005, 0.010, 0.025, 0.05, 0.10, 0.25, and 0.50 μg/ml with the antibody diluent. […] 5. Conjugate Diluent: 50% (v/v) which consists of an aqueous solution containing Fetal Bovine Serum in 0.05 M Tris, 1% (v/v) Proclin-300, pH 7.6. [0159] 6. Conjugate: Goat anti-rabbit IgG (H+L)-HRP conjugate. [0160] 7. TMB reagent. […] 8. Stop solution (1 N HCI). Method
(§3) 1. Dispense 100 μL of antibody diluent, diluted rabbit monoclonal human Id3, and mouse/human Id3 hybridoma supernatants into appropriate wells. […] 2. Incubate at room temperature with mechanical shaking at 750 rpm for 90 minutes. [0165] 3. Remove the incubation mixture by flicking plate content into an appropriate waste container followed by rinsing the wells 5 times with distilled water. [0166] 4. Strike the wells sharply onto absorbent paper or paper towels to remove all residual water droplets. [0167] 5. Dispense 100 μL of 1:50,000 Goat Anti-Rabbit IgG-HRP Conjugate Reagent into each well. Gently mix for 5 seconds. [0168] 6. Incubate at room temperature with mechanical shaking at 750 rpm for 90 minutes. [0169] 7. Repeat procedures 3 and 4. [0170] 8. Dispense 100 μL of TMB Reagent into each well. Gently mix for 5 seconds. [0171] 9. Incubate at room temperature with mechanical shaking at 750 rpm for 20 minutes. […] 10.

[2] = biological target: T7, glutathione S-transferase (GST) (UniProt P08515 1-218 = GST); experiment: ELISA, Ab 0.250 µg/ml
T7 construct: also called carrier protein GST
T7 sequence (P08515 whole entry): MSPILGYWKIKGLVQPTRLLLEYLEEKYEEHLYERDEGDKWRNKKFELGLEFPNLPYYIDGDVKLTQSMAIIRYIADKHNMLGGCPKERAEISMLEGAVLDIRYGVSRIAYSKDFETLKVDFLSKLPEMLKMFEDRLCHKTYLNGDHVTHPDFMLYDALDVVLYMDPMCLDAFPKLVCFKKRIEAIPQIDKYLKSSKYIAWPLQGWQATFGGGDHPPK
Procedure: as §1, §2, §3

Human Id2: Histidine = biological target: T2, Human Id2: Histidine; experiment: ELISA, Ab 0.250 µg/ml
Procedure: as §1, §2, §3

Human Id1: Histidine [3] = biological target: T3, Human Id1: Histidine; experiment: ELISA, Ab 0.250 µg/ml
Procedure: as §1, §2, §3

Mouse Id2: Histidine [4] = biological target: T4, Mouse Id2: Histidine; experiment: ELISA, Ab 0.250 µg/ml
Procedure: as §1, §2, §3

Mouse Id2: Histidine [5] = biological target: T4, Mouse Id2: Histidine; experiment: ELISA, Ab 0.100 µg/ml
Mouse Id1: Histidine [6] = biological target: T1, Mouse Id1: Histidine; experiment: ELISA, Ab 0.100 µg/ml
Procedure: as §1, §2, §3

Human Id1: Histidine [7] = biological target: T3, Human Id1: Histidine; experiment: ELISA, Ab 0.100 µg/ml
Procedure: as §1, §2, §3

Mouse Id3: Histidine [8] = biological target: T5, Mouse Id3: Histidine; experiment: ELISA, Ab 0.250 µg/ml
Procedure: as §1, §2, §3

Human Id3: Histidine = biological target: T6, Human Id3: Histidine; experiment: ELISA, Ab 0.250 µg/ml
Procedure: as §1, §2, §3

Mouse Id3: Histidine [9] = biological target: T5, Mouse Id3: Histidine; experiment: ELISA, Ab 0.100 µg/ml
Procedure: as §1, §2, §3

| Binder | A450 (Mouse Id1: Histidine [1]) [A450] | A450 [2] [A450] | A450 (Human Id2: Histidine) [A450] | A450 (Human Id1: Histidine [3]) [A450] | A450 (Mouse Id2: Histidine [4]) [A450] | A450 (Mouse Id2: Histidine [5]) [A450] | A450 (Mouse Id1: Histidine [6]) [A450] | A450 (Human Id1: Histidine [7]) [A450] | A450 (Mouse Id3: Histidine [8]) [A450] | A450 (Human Id3: Histidine) [A450] | A450 (Mouse Id3: Histidine [9]) [A450] |
| --- | --- | --- | --- | --- | --- | --- | --- | --- | --- | --- | --- |
| rabbit monoclonal anti-human Id3, clone #BCH-4/#3-3 (antibody, V domains shown, Rabbit IgG from a rabbit hybridoma; also called h Id3 MoAb 3-3) VH: QSVEESGGRLVTPGTPLTLTCTVSGIDLSSYAMSWVRQAPGKGLEWIGVIFPSNNVYYASWAKGRFTISKTSTTVDLKITSPTTEDTATYFCASMGAFDSWGPGTLVTVSS VL: QVLTQTPSPVSAAVGGTVTINCQASQSIYNDNDLAWFQQKPGQPPKLLIYDASTLTSGVPSRFKGSGSGTQFTLTISDLDCDDAATYYCAARYSGNIYGFGGGTEVVVK | 0.048 | 0.048 | 0.054 | 0.047 | 0.051 | 0.05 | 0.047 | 0.047 |  |  |  |
| rabbit monoclonal anti-mouse/human Id3, clone #BCH-4/#16-1 (antibody, V domains shown, Rabbit IgG from a rabbit hybridoma; also called m/h Id3 MoAb 16-1) VH: QSVEESGGRLVTPGTPLTLTCTASGFSLSSYYIHWVRQAPGKALEWIGYISDGGTTYYASWAKGRFTISKTSSTTVDLKMTSLTTEDTATYFCARQGFNIWGPGTLVTVSL VL: AVLTQTPSPVSAAVGGTVTISCQSSQSVYNNNWLSWFQQKSGQPPKLLIYETSKLESGVPSRFKGSGSGTQFTLTIIDVQCDDAATYYCLGGYWTTSDNNIFGGGTEVVVK | 0.047 | 0.048 | 0.052 | 0.045 | 0.063 | 0.055 | 0.047 | 0.047 | 3.21 | 2.83 | 2.28 |
| rabbit monoclonal anti-mouse/human Id3, clone #BCH-4/#42-1 (antibody, V domains shown, Rabbit IgG from a rabbit hybridoma; also called m/h Id3 MoAb 42-1) VH: QSVEESGGRLVTPGTPLTLTCTASGFSLSSYYIHWVRQAPGKALEWIGYISDGGTTYYASWAKGRFTISKTSSTTVDLKMTSLTTEDTATYFCARQGFNIWGPGTLVTVSL VL: AVLTQTPSPVSAAVGGTVTISCQSSQSVYNNNWLSWFQQKSGQPPKLLIYETSKLESGVPSRFKGSGSGTQFTLTIIDVQCDDAATYYCLGGYWSTSDNNIFGGGTEVVVK | 0.054 | 0.051 | 0.051 | 0.044 | 0.063 | 0.058 | 0.049 | 0.047 | 3.55 | 3.31 | 2.87 |
| rabbit monoclonal anti-mouse/human Id3, clone #BCH-4/#6-1 (antibody, V domains shown, Rabbit IgG from a rabbit hybridoma; also called m/h Id3 MoAb 6-1) VH: QSVEESGGRLVTPGTPLTLTCTASGFSLSNVYIHWVRQAPGKGLEWIGYISDGDTARYATWAKGRFTISKTSSTTVNLKMTSLTTEDTATYFCARQGFNIWGPGTLVTVSL VL: AVLTQTPSPVSAAVGGTVSISCQSSQSVWNNNWLSWFQQKPGQPPKLLIYETSKLESGVPSRFKGSGSGTQFTLTISDVQCDDAATYYCLGGYWTTSDNNVFGGGTEVVVK | 0.048 | 0.051 | 0.056 | 0.051 | 0.062 | 0.055 | 0.049 | 0.049 | 3.42 | 3.02 | 2.56 |
| rabbit monoclonal anti-mouse/human Id3, clone #BCH-4/#17-3 (antibody, V domains shown, Rabbit IgG from a rabbit hybridoma; also called m/h Id3 MoAb 17-3; BCH-3/#17-3) VH: QSVEESGGRLVTPGTPLTLTCTASGFSLSNVYIHWVRQAPGKGLEWIGYISDGDTARYATWAKGRFTISKTSSTTVNLKMTSLTTEDTATYFCARQGFNIWGPGTLVTVSL VL: AVLTQTPSPVSAAVGGTVSISCQSSQSVWNNNWLSWFQQKPGQPPKLLIYETSKLESGVPSRFKGSGSGTQFTLTISDVQCDDAATYYCLGGYWTTSDNNVFGGGTEVVVK | 0.052 | 0.052 | 0.054 | 0.045 | 0.064 | 0.057 | 0.051 | 0.048 | 3.62 | 3.32 | 2.91 |
